# Laboratory results as given in US12686712B2, “Antibody, related use, pharmaceutical composition including method for diagnosing fungal infections, fungal infection diagnosis kit and method for treating fungal infections” (priority 2020, dated 2026).
# B1: HC6/DD11: murine IgM monoclonal antibody against chitooligomers (chitotriose); VH SEQ ID NO: 15, VL SEQ ID NO: 16 (antibody, listed as Mus musculus, V domains shown)
# VH: STGQVKLEESGGGLVQPGGSRKLSCAASGFTFSDYGMAWVRQAPGKGPEWVAFISNLAYSIYYADTVTGRFTISRENAKNTLYLEMSSLRSEDTAMYYCARDYYGSSYWYFDVWGAGTTVTAPC
# VL: ATNSCISRGEVTITCSASSSVSYMHWFQQKPGTSPKLWIYSTSNLASGVPARFSGSGSGTSYSLTISRMEAEDAATYYCQQRSSYPLTFGAGTKLELKRADAAPTVSLET
# How the values were obtained:
# C. albicans = assay: Biofilm development, XTT reduction trial; assay type: cell-based, Candida albicans; conditions: AcM 25 μg/ml, 48 hours at 37° C., vs fungus without treatment, p<0.05
# Experimental: (§1) C. neoformans (H99 and Cap67) and Candida albicans were cultivated in Sabouraud media for 24 hours at 30° C. Cellular suspensions were centrifuged for 5 minutes at 3000 g, washed 3 times in PBC and suspended in minimum media (20 mg/ml thiamin, 30 mm glucose, 26 mM glycine, 20 mM MgSO4, and 58.8 mM KH2PO4). Then, they were added to 96-well plates (100 μl/well—1×10^6 células/ml) and cultivated for 48 hours at 37° C. at presence of AcM (HC6/DD11 and AF1/CC5) and AcM anti-GXM 18B7 (only to H99) at 25 μg/ml concentration, keeping under agitation for 30 minutes, for AcM total homogenization with fungi. As control, drug AmB was used at 1 μg/ml concentration.
# (§2) Two analysis systems were performed: in the first, cells were washed, so that non-adhering cells were removed and only cells bonded to biofilm under development remained; in the second system, cells were not washed and all cells adhered or not to substrate were quantified.
# (§3) Viable cell metabolic activity in both trials was assessed by the method based on decrease of XTT (2-methoxy-4-nitro-5-sulfophenyl)-5-[(phenylamino) carbonyl]-2H-tetrazolium hydroxide) in spectrophotometer at 492 nm of wavelength.
# (§4) AcMs were tested (25 μg/ml) against three fungus species (C. albicans, C. neoformans—H99—and acapsular mutant of C. neoformans—Cap67), with control by AcM anti-GXM 18B7 (25 μg/ml) only to H99. In the first assay (FIGS. 14A and B), cellular suspensions were washed to remove non-adhering cells to substrate. […] In second assay (FIGS. 14C and D), cellular suspensions were not washed, and again AcM inhibited biofilm development (p<0.05) compared to cell not treated with antibodies. In both assays, cell growth was observed.
# C. neoformans strain H99 = assay: Survival trial, lethal i.p. challenge; assay type: in vivo, Balb/C line mice; conditions: synergic group: AcM 85 μg/animal with AmB 0.25 mg/kg
# Experimental: Balb/C line mice (n=7) were lethally challenged via i.p. with 10^5 cells in PBS of C. neoformans (H99) and treated 2 hours later with 100 μl of AmB (2.5 mg/kg and 0.25 mg/kg), 100 μl of AcM (85 μg/ml) and 100 μl of AcM and AmB combined solution (0.25 mg/kg). Control animals were challenged only by C. neoformans (H99) or only with 100 μl of a solution of PBS, AmB (2.5 mg/kg) or AcM (85 μg/ml) without fungus (adapted from Liedke et al.). Survival rate was achieved and analysis was extended up to 90 days after infection, presenting statistical value with p<0.005.
# Mice were lethally challenged with inoculant i.p. of 1×10^5 cells of yeast C. neoformans strain H99. After 2 hours, they were treated with PBS (negative control), 85 μg/animal of AcM (HC6/DD11) in isolate form, 0.25 or 2.5 mg/kg of AmB in isolate form, and in synergic form, AcM keeping test concentrations. Treatments were repeated for another two times, with 10-day interval.
# C. neoformans H99 = assay: Biofilm development, XTT reduction trial; assay type: cell-based, Cryptococcus neoformans; conditions: AcM 25 μg/ml, 48 hours at 37° C., vs fungus without treatment, p<0.05
# Experimental: as §1, §2, §3, §4
# AcMs were compared to AcM anti-GXM 18B7 concerning biofilm development inhibition.
# Candida albicans = assay: Immunofluorescence of AcM anti-chitooligomer against intact cells; assay type: binding; conditions: AcM 25 μg/mL, 1 h at 37° C.; anti-IgM Alexa 568; calcofluor
# Experimental: Fungal cells (10^6 cells)) were fastened (cacodylate paraformolaldehyde buffer 4%; 30 min) and blocked later (PBS/BSA 1%; 1 hour). Then, they were incubated with AcM anti-chitooligomer(25 μg/mL; 1 h at 37° C.) After washing with PBS, cells were incubated with mouse anti-IgM antibody conjugated at Alexa 568 (SIGMA; 1:1000). After PBS washing, cells were incubated with 25 μM of white calcofluor (Invitrogen) and washed again. Cellular suspensions were assembled in glass blades and assessed under microscope Olympus AX70, coupled to camera system (QImaging Retiga 1300) and assessed in QCapture suite V2.46 software.
# From reliable and ELISA and Dot Blot trials, biological activity validation tests. Thus, AcMs were used through immunofluorescence (IF), using the pathogen Candida albicans as template. AcMs were efficient at fungal cellular wall labeling, showing the same profile whenever standard marker is used (lectin), data not provided.
# C. neoformans (H99) = assay: Indirect ELISA against intact cells using poly-L-Lysine (PL); assay type: binding, Cryptococcus neoformans; conditions: 10^4 and 10^5 cells/ml
# Experimental: For this test, C. neoformans (H99), Candida albicans, Giardia lamblia, human lung line cell A549 (ATCC), Escherichia coli and Staphylococcus aureus. Cells were washed in PBS three times and suspended at 10^7 cell/ml density in poly-L-Lysine (5 μg/ml in PBS) for adherence at night at 4° C. The next day, plates were blocked with PBS/BSA 5% and incubated for 1 hour at 37° C., then they are incubated for 1 hour at 37° C. with anti-chitooligomer AcM at 50 μg/ml concentration and diluted at 5 μg/ml. Then, washing with PBS/Tween 0.05% was performed for 3 times and anti-IgM murine peroxidase was added diluted 1:5000 and incubated for 2 hours at 37° C. Plates were washed again and TMB was added and incubated for 30 minutes at 37° C.
# Reaction was stopped with HCl 1 N and reading with spectrophotometer at 450 nm. After this trial, seriated dilutions were performed at density of cells 10^7 until 10 cells/ml to fungi and 10^7 until 10^4 cells/ml to other cellular types and tested of AcM anti-chitooligomer at 25 μg/ml concentration, followed by the same procedures abovementioned. […]
# In this trial, 10^7 cell/ml of C. albicans were used to perform an absorbance curve, in which it was observed that there was a 25 μg/ml concentration reliable signal of both AcM, as above such value the curve starts to enter in plateau, as provided in FIG. 9. […]
molecule,measurement,setting,value
B1,biofilm development (XTT reduction),C. albicans; non-washed cells,reduced biofilm development significantly
same,biofilm development (XTT reduction),C. albicans; washed cells,reduced biofilm development significantly
same,death of infected animals,C. neoformans strain H99; followed up to 90 days,did not die
same,survival,"C. neoformans strain H99; up to 90 days, n=7",100%
same,biofilm development (XTT reduction),C. neoformans H99; non-washed cells,reduced biofilm development significantly
same,biofilm development (XTT reduction),C. neoformans H99; washed cells,reduced biofilm development significantly
same,fungal cellular wall labeling by immunofluorescence,Candida albicans,characteristic polar label
same,ELISA signal in cell saturation curve,C. neoformans (H99),slightly more sensitive
